Results reported in patent publication US20260184782A1 (TWIST BIOSCIENCE, published 2026).

B1: TIGIT-SC96 (Fc fusion)
VHH: EVQLVESGGGLVQPGGSLRLSCAASGMTTIGPMGWFRQAPGKEREFVAAINWSGSSTVYADSVKGRFTISADNSKNTAYLQMNSLKPEDTAVYYCVTYSAYDFRNAWGQGTLVTVSS
notes: VHH-Fc fusion in assay
B2: TIGIT-SC156 (Fc fusion)
VHH: EVQLVESGGGLVQPGGSLRLSCAASGNTFSGGFMGWFRQAPGKEREWVASVLRGGYTWYADSVKGRFTISADNSKNTAYLQMNSLKPEDTAVYYCTTEGYDFWSGYYDYWGQGTLVTVSS
notes: VHH-Fc
B3: TIGIT-SC162 (Fc fusion)
VHH: EVQLVESGGGLVQPGGSLRLSCAASGNTFSGGFMGWFRQAPGKEREWVASVLRGGYTWYADSVKGRFTISADNSKNTAYLQMNSLKPEDTAVYYCTTDRAIGVRPLFDHWGQGTLVTVSS
notes: VHH-Fc
B4: TIGIT-SC141 (Fc fusion)
VHH: EVQLVESGGGLVQPGGSLRLSCAASGNAFSSSVMGWFRQAPGKEREFVAGIWRSGSLKAYADSVKGRFTISADNSKNTAYLQMNSLRPEDTAVYYCARAYVGMTTVTFDHWGQGTLVTVSS
notes: VHH-Fc fusion in assay
B5: TIGIT-SC174 (Fc fusion)
VHH: EVQLVESGGGLVQPGGSLRLSCAASGFLFDSYAMGWFRQAPGKEREFVAAISWSGGSTYYADSVKGRFTISADNSKNTAYLQMNSLKPEDTAVYYCTTDALRFLEWPWWGQGTLVTVSS
notes: VHH-Fc fusion in assay
B6: TIGIT-SC109 (Fc fusion)
VHH: EVQLVESGGGLVQPGGSLRLSCAASGRDISSYIMGWFRQAPGKERELVAIIDTNGDDTLYADSAKGRFTISADNSKNTAYLQMNSLKPEDTAVYYCANGGRVWWAFDYWGQGTLVTVSS
notes: VHH-Fc fusion in assay
B7: TIGIT-SC148 (Fc fusion)
VHH: EVQLVESGGGLVQPGGSLRLSCAASGDIGSINAMGWFRQAPGKEREFVAGIWRSGNLKAYADSVKGRFTISADNSKNTAYLQMSSLKPEDTAVYYCARGNIVVVPAAFVIWFDPWGQGTLVTVSS
notes: VHH-Fc fusion in assay
B8: TIGIT-SC2 (Fc fusion)
VHH: EVQLVESGGGLVQPGGSLRLSCAASGFTLSSNWMGWFRQAPGKEREMVAAIDWSGGSALYADSVKGRFTISADNSKNTAYLQMNSLKPEDTAVYYCAKDALSNSARFDHWGQGTLVTVSS
notes: VHH-Fc
B9: TIGIT-SC199 (Fc fusion)
VHH: EVQLVESGGGLVQPGGSLRLSCAASGFSSAQYAMGWFRQAPGKERELVASIDSEGRTNYADSVKGRFTISADNSKNTAYLQMNSLKPEDTAVYYCTRDGGFDPWGQGTLVTVSS
notes: VHH-Fc fusion in assay
B10: TIGIT-SC45 (Fc fusion)
VHH: EVQLVESGGGLVQPGGSLRLSCAASGGTFNAMGWFRQAPGKEREWVASVLRGGYTWYADSVKGRFTISADNSKNTAYLQMNSLKPEDTAVYYCAKDGGSSGTYQNWWGQGTLVTVSS
notes: VHH-Fc fusion in assay
B11: TIGIT-SC94 (Fc fusion)
VHH: EVQLVESGGGLVQPGGSLRLSCAASGSSFSAYAMGWFRQAPGKEREFVSLINWSSGKTIYADSVKGRFTISADNSKNTAYLQMNSLKPEDTAVYYCARVRIFNHVHRPSYYFDYWGQGTLVTVSS
notes: VHH-Fc fusion in assay
B12: TIGIT-SC202 (Fc fusion)
VHH: EVQLVESGGGLVQPGGSLRLSCAASGFTFSPSWMGWFRQAPGKEREWVASVLRGGYTWYADSVKGRFTISADNSKNTAYLQMNSLKPEDTAVYYCTTDGGYSGIVGFAWGQGTLVTVSS
notes: VHH-Fc fusion in assay
B13: TIGIT-SC181 (Fc fusion)
VHH: EVQLVESGGGLVQPGGSLRLSCAASGFTLSSNWMGWFRQAPGKEREFVASVLRGGYTWYADSVKGRFTISADNSKNTAYLQMNSLKPEDTAVYYCARDAYYYGLWGQGTLVTVSS
notes: VHH-Fc fusion in assay
B14: TIGIT-SC146 (Fc fusion)
VHH: EVQLVESGGGLVQPGGGLRLSCAASGFTLENNMMGWFRQAPGKEREFVAAISASGTLRAYADSVKGRFTISADNSKNTAYLQMNSLKPEDTAVYYCAKGGQAGPMAFYFDYWGQGTLVTVSS
notes: VHH-Fc fusion in assay
B15: TIGIT-SC192 (Fc fusion)
VHH: EVQLVESGGGLVQPGGSLRLSCAASGFTFSVYWMGWFRQAPGKEREFVAAISRSGTLKEYADSVKGRFTISADNSKNTAYLQMNSLKPEDTAVYYCARGSGWPKIHFDYWGQGTLVTVSS
notes: VHH-Fc fusion in assay
B16: TIGIT-SC193 (Fc fusion)
VHH: EVQLVESGGGLVQPGGSLRLSCAASGFTFSDYWMGWFRQAPGKEREFVAAISRSGTLKAYADSVKGRFTISADNSKNTAYLQMNSLKPEDTAVYYCARGSGWPKIHFDYWGQGTLVTVSS
notes: VHH-Fc fusion in assay
B17: TIGIT-SC186 (Fc fusion)
VHH: EVQLVESGGGLVQPGGSLRLSCAASGNTFSGGFMGWFRQAPGKEREYVASVLRGGYTWYADSVKGRFTISADNSKNTTYLQMNSLKPEDTAVYYCTTDRGYNWNYDWGQGTLVTVSS
notes: VHH-Fc fusion in assay
B18: TIGIT-SC137 (Fc fusion)
VHH: EVQLVESGGGLVQPGGSLRLSCAASGFTLENNMMGWFRQAPGKEREFVAAISRSGTLKAYADSVKGRFTISADNSKNTAYLQMNSLKPEDTAVYYCSLVSGPRWYWGQGTLVTVSS
notes: VHH-Fc fusion in assay
B19: TIGIT-SC152 (Fc fusion)
VHH: EVQLVESGGGLVQPGGNLRLSCAASGSTFSKHHAMGWFRQAPGKEREFVAGIIRSGTLKAYADSVKGRFTISADNSKNTAYLQMNSLKPEDTAVYYCTRGRAARHNLWYFDLWGQGTLVTVSS
notes: VHH-Fc fusion in assay
B20: TIGIT-SC1 (Fc fusion)
VHH: EVQLVESGGGLVQPGGSLRLSCAASGFTLNDYAMGWFRQAPGKERELVAWIARYDGSTLYADSVKGRFTISADNSKNTAYLQMNSLKPEDTAVYYCARVDWALNAAPFDYWGQGTLVTVSS
notes: VHH-Fc
B21: TIGIT-SC60 (Fc fusion)
VHH: EVQLVESGGGLVQPGGSLRLSCAASGFTFSPSWMGWFRQAPGKEREWVASVLRGGYTWYADSVKGRFTISADNSKNTAYLQMNSLKPEDTAVYYCARDDLDYWGQGTLVTVSS
notes: VHH-Fc
B22: TIGIT-SC188 (Fc fusion)
VHH: EVQLVESGGGLVQPGGSLRLSCAASGNTFSGGFMGWFRQAPGKEREWVASVLRGGYTWYADSVKGRFTISADNSKNTAYLQMNSLKPEDTAVYYCTTDSLPGWGQGTLVTVSS
notes: VHH-Fc
B23: TIGIT-SC3 (Fc fusion)
VHH: EVQLVESGGGLVQPGGSLRLSCAASGTFQRINAMGWFRQAPGKEREFVSTINWSGSNTYYADSVKGRFTISADNSKNTAYLQMNSLKPEDTAVYYCASSYSSSSGLGDIWGQGTLVTVSS
notes: VHH-Fc
B24: TIGIT-SC143 (Fc fusion)
VHH: EVQLVESGGGLVQPGGSLRLSCAASGFTLGYYVMGWFRQAPGKEREFVAAISASGTLRAYADSVEGRFTISADNSKNTAYLQMNSLKPEDTAVYYCARAELGYSYGSVDGYWGQGTLVTVSS
notes: VHH-Fc fusion in assay
B25: TIGIT-SC95 (Fc fusion)
VHH: EVQLVESGGGLVQPGGSLRLSCAASGPTFSTNVMGWFRQAPGKEREFVSSIHWGGSSTVYADSVKGRFTISADNSKNTAYLQMNSLKPEDTAVYYCVTYSAYDFRNAWGQGTLVTVSS
notes: VHH-Fc
B26: TIGIT-SC177 (Fc fusion)
VHH: EVQLVESGGGLVQPGGSLRLSCAASGFTFSPSWMGWFRQAPGKEREWVASVLRGGYTWYADSVKGRFTISADNSKNTAYLQMNSLKPEDTAVYYCATDRGPAMVFNLWGQGTLVTVSS
notes: VHH-Fc fusion in assay
B27: TIGIT-SC105 (Fc fusion)
VHH: EVQLVESGGGLVQPGGSLRLSCAASGFAFSRYGMGWFRQAPGKERELVATIGWSGSSTFYADSVKGRFTISADNSKNTAYLQMNSLKPEDTAVYYCARDGGPYYYGLDVWGQGTLVTVSS
notes: VHH-Fc fusion in assay
B28: TIGIT-SC205 (Fc fusion)
VHH: EVQLVESGGGLVQPGGSLRLSCAASGFTFDRSWMGWFRQAPGKEREFVAAIWRSGTLKAYADSVKGRFTISADNGKNTAYLQMNSLKPEDTAVYYCAEGGTTAWGWFVPWGQGTLVTVSS
notes: VHH-Fc fusion in assay
B29: TIGIT-SC118 (Fc fusion)
VHH: EVQLVESGGGLVQPGGSLRLSCAASGRTFSFMGWFRQAPGKEREWVASVLRGGYTWYADSVKGRFTISADNSKNTAYLQMNSLKPEDTAVYYCAKDGGWFDPWGQGTLVTVSS
notes: VHH-Fc fusion in assay

Columns and labels:
recombinant human TIGIT = target: T1, recombinant human TIGIT (human, UniProt Q495A1 22-141, limits assumed); test: SPR Carterra, average
T1 construct: recombinant human TIGIT used in Carterra SPR; also called hTIGIT
T1 sequence (looked up): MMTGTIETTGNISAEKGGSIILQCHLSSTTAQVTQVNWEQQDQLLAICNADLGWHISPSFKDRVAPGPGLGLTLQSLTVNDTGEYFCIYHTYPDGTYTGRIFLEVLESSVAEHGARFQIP
Experimental: Binding affinities of VHH-Fc proteins to recombinant human TIGIT were measured by SPR using a Carterra instrument (Table 10A). […] Average values reported from measurements from 1-2 samples.

human TIGIT-Fc = target: T2, human TIGIT-Fc (human, UniProt Q495A1 22-141, limits assumed); test: CD155 competition ELISA, single point; note: test concentration or dose not given here
T2 construct: not shown: Fc; not described
T2 sequence (looked up): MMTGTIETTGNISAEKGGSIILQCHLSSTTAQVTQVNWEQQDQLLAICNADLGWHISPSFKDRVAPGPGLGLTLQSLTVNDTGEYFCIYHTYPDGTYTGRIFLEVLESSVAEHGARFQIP
Experimental: TIGIT/CD155 inhibition of VHH-Fcs were assessed using an ELISA assay (Table 10B). Briefly, human TIGIT-Fc was coated on a plate & then incubated with VHH-Fcs and human CD155-biotin. Bound CD155-biotin was detected using a streptavidin-HRP conjugate visualized with TMB. Strong inhibitors from the single point screen were titrated to determine EC50 (Table 10C).

| Binder | Kd (recombinant human TIGIT) [nM] | koff (recombinant human TIGIT) [s⁻¹] | kon (recombinant human TIGIT) [M⁻¹ s⁻¹] | OD (450 nm) (human TIGIT-Fc) [OD] |
| --- | --- | --- | --- | --- |
| B1 | 113 | 0.0176 | 166000 | – |
| B2 | – | – | – | 0.701 |
| B3 | – | – | – | 0.423 |
| B4 | 903 | 0.151 | 167000 | – |
| B5 | 124 | 0.0335 | 444000 | – |
| B6 | 121 | 0.00468 | 38700 | – |
| B7 | 1320 | 0.16 | 121000 | – |
| B8 | – | – | – | 0.407 |
| B9 | 321 | 0.128 | 399000 | – |
| B10 | 103 | 0.00929 | 89900 | – |
| B11 | 549 | 0.027 | 49200 | – |
| B12 | 625 | 0.0934 | 93800 | – |
| B13 | 393 | 0.168 | 428000 | – |
| B14 | 1060 | 0.24 | 226000 | – |
| B15 | 131 | 0.0715 | 545000 | – |
| B16 | 841 | 0.178 | 211000 | – |
| B17 | 170 | 0.005 | 98700 | – |
| B18 | 102 | 0.00688 | 67500 | – |
| B19 | 1470 | 0.155 | 106000 | – |
| B20 | – | – | – | 0.649 |
| B21 | – | – | – | 0.349 |
| B22 | – | – | – | 0.524 |
| B23 | – | – | – | 0.748 |
| B24 | 474 | 0.239 | 504000 | – |
| B25 | – | – | – | 0.613 |
| B26 | 340 | 0.00279 | 48600 | – |
| B27 | 189 | 0.0116 | 61600 | – |
| B28 | 119 | 0.0854 | 718000 | – |
| B29 | 114 | 0.00252 | 29700 | – |
